The chains are these.
T1: PF3D7_0420300 D1 (Plasmodium falciparum, UniProt Q8I1N6 1956-2015)
T1 sequence: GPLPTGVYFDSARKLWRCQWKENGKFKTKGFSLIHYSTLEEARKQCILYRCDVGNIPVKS

B1: CACACA_site8057 (dsDNA)
DNA 1: ATTAAACATACATATACACACACACCCACCCACCCA
DNA 2: TGGGTGGGTGGGTGTGTGTGTATATGTATGTTTAAT
B2: CACACA_negctrl_site251 (dsDNA)
DNA 1: AAGAATGTTATATTATGATGCTGTCTTTTTTTAAGA
DNA 2: TCTTAAAAAAAGACAGCATCATAATATAACATTCTT
B3: CACACA_negctrl_site610 (dsDNA)
DNA 1: ATTATAAGAATTAAAAGAAACAAAATTTTAATTATA
DNA 2: TATAATTAAAATTTTGTTTCTTTTAATTCTTATAAT
B4: CACACA_negctrl_site637 (dsDNA)
DNA 1: GTGTAAAGGTATTATTGTATTATTCAAAATAAAAAA
DNA 2: TTTTTTATTTTGAATAATACAATAATACCTTTACAC
B5: CACACA_negctrl_site706 (dsDNA)
DNA 1: TTTCTTATATTATATAAATATATAGATGTTAATGGT
DNA 2: ACCATTAACATCTATATATTTATATAATATAAGAAA
B6: CACACA_negctrl_site73 (dsDNA)
DNA 1: TTGATGTATACAATGTAGATTATTTAATATTTCAAC
DNA 2: GTTGAAATATTAAATAATCTACATTGTATACATCAA
B7: CACACA_negctrl_site1686 (dsDNA)
DNA 1: ACAAGTGTATATGTTATATATATATATATATATATA
DNA 2: TATATATATATATATATATATAACATATACACTTGT
B8: CACACA_site1736 (dsDNA)
DNA 1: ATAGTATACAGACACACACACACACCCATATATATA
DNA 2: TATATATATGGGTGTGTGTGTGTGTCTGTATACTAT
B9: CACACA_site2917 (dsDNA)
DNA 1: ACCATACATACATACACACACACACCCATATATATA
DNA 2: TATATATATGGGTGTGTGTGTGTATGTATGTATGGT
B10: CACACA_negctrl_site1408 (dsDNA)
DNA 1: ATTTATTTTAATTTTTTTTTTTCTCTTTTGGATCTA
DNA 2: TAGATCCAAAAGAGAAAAAAAAAAATTAAAATAAAT
B11: CACACA_negctrl_site83 (dsDNA)
DNA 1: GTGTGGTTACAGACACGAACACATTTTTTAAATATT
DNA 2: AATATTTAAAAAATGTGTTCGTGTCTGTAACCACAC
B12: CACACA_site8742 (dsDNA)
DNA 1: TTATGTTCTTTAAAACCACACACCCCCCAACCCCCC
DNA 2: GGGGGGTTGGGGGGTGTGTGGTTTTAAAGAACATAA
B13: CACACA_negctrl_site54 (dsDNA)
DNA 1: AATAAAAAAAAAATATATATTTTTTTTTTTTTTTTT
DNA 2: AAAAAAAAAAAAAAAAATATATATTTTTTTTTTATT
B14: CACACA_negctrl_site77 (dsDNA)
DNA 1: TCTTTATATCATCTTTCTAAATATATATATATATAA
DNA 2: TTATATATATATATATTTAGAAAGATGATATAAAGA
B15: CACACA_site638 (dsDNA)
DNA 1: AATACACGCAAACACACACACACACCCACATATATA
DNA 2: TATATATGTGGGTGTGTGTGTGTGTTTGCGTGTATT
B16: CACACA_site7104 (dsDNA)
DNA 1: AACACGCGCAGACACACACACACACGCACATATATA
DNA 2: TATATATGTGCGTGTGTGTGTGTGTCTGCGCGTGTT
B17: CACACA_negctrl_site1462 (dsDNA)
DNA 1: ATTTCTTTTTTTTTTTTTTTTAATGTAAAACATTTT
DNA 2: AAAATGTTTTACATTAAAAAAAAAAAAAAAAGAAAT
B18: CACACA_negctrl_site1016 (dsDNA)
DNA 1: TATATTCCACTCATTGATTTTCTCTTCTCACAAAAA
DNA 2: TTTTTGTGAGAAGAGAAAATCAATGAGTGGAATATA
B19: CACACA_site240 (dsDNA)
DNA 1: TTTATTTATTAATACACACACACACCCCCACAAAAT
DNA 2: ATTTTGTGGGGGTGTGTGTGTGTATTAATAAATAAA
B20: CACACA_negctrl_site1642 (dsDNA)
DNA 1: TGTTGCAAAACAAAAAAAAAAAAAAAAAATAATAAT
DNA 2: ATTATTATTTTTTTTTTTTTTTTTTGTTTTGCAACA
B21: CACACA_negctrl_site899 (dsDNA)
DNA 1: AATAAATAAATAAATATATATATATATATATATATG
DNA 2: CATATATATATATATATATATATTTATTTATTTATT
B22: CACACA_site8059 (dsDNA)
DNA 1: CATACATATAAACACACACACACACCCACCCACAAA
DNA 2: TTTGTGGGTGGGTGTGTGTGTGTGTTTATATGTATG
B23: CACACA_site8011 (dsDNA)
DNA 1: AGCACCCACCAACACACACACACACCCACCCACCCA
DNA 2: TGGGTGGGTGGGTGTGTGTGTGTGTTGGTGGGTGCT
B24: CACACA_site639 (dsDNA)
DNA 1: AAAATACACGCATACACACACACACCCACCCATATA
DNA 2: TATATGGGTGGGTGTGTGTGTGTATGCGTGTATTTT
B25: CACACA_negctrl_site1797 (dsDNA)
DNA 1: AGATTATATATATGTATATATGTATATATTTATATA
DNA 2: TATATAAATATATACATATATACATATATATAATCT
B26: CACACA_negctrl_site461 (dsDNA)
DNA 1: AGATATAGGAAAATAATATATATATATTTTTTTTTT
DNA 2: AAAAAAAAAATATATATATATTATTTTCCTATATCT
B27: CACACA_site8069 (dsDNA)
DNA 1: ACATAATTAACAAATACACACACACCCACCCACAAA
DNA 2: TTTGTGGGTGGGTGTGTGTGTATTTGTTAATTATGT
B28: CACACA_site366 (dsDNA)
DNA 1: CACACCCACCAACACACACACACACCCACCCATATA
DNA 2: TATATGGGTGGGTGTGTGTGTGTGTTGGTGGGTGTG
B29: CACACA_negctrl_site1134 (dsDNA)
DNA 1: GTTTGATAACACCTACAAACTCTTTTTTTTTTTTTT
DNA 2: AAAAAAAAAAAAAAGAGTTTGTAGGTGTTATCAAAC
B30: CACACA_negctrl_site754 (dsDNA)
DNA 1: TATATTTGTACATGATATTTTTTTTTTCTTTTAAAA
DNA 2: TTTTAAAAGAAAAAAAAAATATCATGTACAAATATA
B31: CACACA_negctrl_site942 (dsDNA)
DNA 1: ATATTATGAAGGGATATTTTCAAAAATATTAGGAGA
DNA 2: TCTCCTAATATTTTTGAAAATATCCCTTCATAATAT
B32: CACACA_site6305 (dsDNA)
DNA 1: CACACGCACGAACACACACACACACGCACGCACATA
DNA 2: TATGTGCGTGCGTGTGTGTGTGTGTTCGTGCGTGTG
B33: CACACA_negctrl_site1015 (dsDNA)
DNA 1: TATAAATAAAGACTTTTTTCTAACTTTTTTTTGTAT
DNA 2: ATACAAAAAAAAGTTAGAAAAAAGTCTTTATTTATA
B34: CACACA_site518 (dsDNA)
DNA 1: ATAATTAACAAATACACACACACACCCCCACAAAAA
DNA 2: TTTTTGTGGGGGTGTGTGTGTGTATTTGTTAATTAT
B35: CACACA_site492 (dsDNA)
DNA 1: TAAACATACATATACACACACACACCCACACCCACA
DNA 2: TGTGGGTGTGGGTGTGTGTGTGTATATGTATGTTTA
B36: CACACA_site2625 (dsDNA)
DNA 1: AAATAAATGAAACACACACACACAAAAAAAAAAAAC
DNA 2: GTTTTTTTTTTTTGTGTGTGTGTGTTTCATTTATTT
B37: CACACA_negctrl_site1632 (dsDNA)
DNA 1: AATTCACATGTGAACTAAAAGAATATTATATATATA
DNA 2: TATATATATAATATTCTTTTAGTTCACATGTGAATT
B38: CACACA_site2752 (dsDNA)
DNA 1: CAAACATATTAATGTACACACACCCACCCACAAACA
DNA 2: TGTTTGTGGGTGGGTGTGTGTACATTAATATGTTTG
B39: CACACA_negctrl_site608 (dsDNA)
DNA 1: GTATATATATATATATATATAATAGTAACTTTTACT
DNA 2: AGTAAAAGTTACTATTATATATATATATATATATAC
B40: CACACA_negctrl_site1407 (dsDNA)
DNA 1: CACATATACAAAAAGAAATGTTTAGTTGAAAATTAA
DNA 2: TTAATTTTCAACTAAACATTTCTTTTTGTATATGTG
B41: CACACA_site6306 (dsDNA)
DNA 1: AGCACACGCAGACACACACACACACGCACACGCACA
DNA 2: TGTGCGTGTGCGTGTGTGTGTGTGTCTGCGTGTGCT

For 41 molecules, binding signal results are on record in article PMC11417369, “DNA sequence and chromatin differentiate sequence-specific transcription factor binding in the human malaria parasite Plasmodium falciparum”.

For the data set, the target named is T1, PF3D7_0420300 D1. In words: gcPBM; about 25 ug protein; PBS, 1% milk, 0.2 mg/ml BSA, salmon testes DNA, 0.03% Triton X-100. Particulars: tags: N-terminal GST (pGEX-4T-1), kept; label: surface-attached array probe.
With B1, the binding signal was 10.9 ln median PBM intensity, better of two orientations.
As for B2, the binding signal is 9.08 ln median PBM intensity, better of two orientations.
Next, B3: 9.07 ln median PBM intensity, better of two orientations.
In the case of B4, the binding signal was 9.07 ln median PBM intensity, better of two orientations.
Consider B5, for which the binding signal was 9.08 ln median PBM intensity, better of two orientations.
B6: the binding signal was 9.09 ln median PBM intensity, better of two orientations.
The same measure for B7: 9.1 ln median PBM intensity, better of two orientations; for B8: 10.4 ln median PBM intensity, better of two orientations; for B9: 10.4 ln median PBM intensity, better of two orientations.
Next, B10: 9.07 ln median PBM intensity, better of two orientations; B11: 9.09 ln median PBM intensity, better of two orientations.
For B12, the binding signal is 10.4 ln median PBM intensity, better of two orientations.
As to B13, the binding signal was 9.09 ln median PBM intensity, better of two orientations.
Next, B14: 9.07 ln median PBM intensity, better of two orientations; B15: 10.5 ln median PBM intensity, better of two orientations; B16: 10.5 ln median PBM intensity, better of two orientations.
The same measure for B17: 9.11 ln median PBM intensity, better of two orientations.
As to B18, the binding signal was 9.1 ln median PBM intensity, better of two orientations.
With B19, the binding signal was 10.5 ln median PBM intensity, better of two orientations.
B20: the binding signal was 9.09 ln median PBM intensity, better of two orientations.
Regarding B21, the binding signal was 9.11 ln median PBM intensity, better of two orientations.
Next, B22: 10.5 ln median PBM intensity, better of two orientations; B23: 10.6 ln median PBM intensity, better of two orientations; B24: 10.5 ln median PBM intensity, better of two orientations.
For the molecule B25, the binding signal is 9.11 ln median PBM intensity, better of two orientations.
Next, B26: 9.11 ln median PBM intensity, better of two orientations; B27: 10.5 ln median PBM intensity, better of two orientations; B28: 10.4 ln median PBM intensity, better of two orientations.
On to B29, for which the binding signal is 9.08 ln median PBM intensity, better of two orientations.
Regarding B30, the binding signal was 9.1 ln median PBM intensity, better of two orientations.
Consider B31, for which the binding signal was 9.11 ln median PBM intensity, better of two orientations.
The same measure for B32: 10.4 ln median PBM intensity, better of two orientations; for B33: 9.06 ln median PBM intensity, better of two orientations; for B34: 10.6 ln median PBM intensity, better of two orientations.
As to B35, the binding signal is 10.4 ln median PBM intensity, better of two orientations.
Next, B36: 10.5 ln median PBM intensity, better of two orientations.
The same measure for B37: 9.11 ln median PBM intensity, better of two orientations; for B38: 10.4 ln median PBM intensity, better of two orientations.
Consider B39, for which the binding signal is 9.1 ln median PBM intensity, better of two orientations.
On to B40, for which the binding signal was 9.06 ln median PBM intensity, better of two orientations.
On to B41, for which the binding signal was 10.5 ln median PBM intensity, better of two orientations.
